Data reported in patent US20160229903.

Legend:
[1] = tested on: VWF-052 (VWF D′D3-Fc with non-cleavable 48 amino acid long GS linker)
[2] = tested on: VWF-055 (VWF D′D3-Fc with 34 amino acid long little a2 linker)
VWF-055 (VWF D′D3-Fc with 34 amino acid long little a2 linker), sequence (chain, as listed by the source): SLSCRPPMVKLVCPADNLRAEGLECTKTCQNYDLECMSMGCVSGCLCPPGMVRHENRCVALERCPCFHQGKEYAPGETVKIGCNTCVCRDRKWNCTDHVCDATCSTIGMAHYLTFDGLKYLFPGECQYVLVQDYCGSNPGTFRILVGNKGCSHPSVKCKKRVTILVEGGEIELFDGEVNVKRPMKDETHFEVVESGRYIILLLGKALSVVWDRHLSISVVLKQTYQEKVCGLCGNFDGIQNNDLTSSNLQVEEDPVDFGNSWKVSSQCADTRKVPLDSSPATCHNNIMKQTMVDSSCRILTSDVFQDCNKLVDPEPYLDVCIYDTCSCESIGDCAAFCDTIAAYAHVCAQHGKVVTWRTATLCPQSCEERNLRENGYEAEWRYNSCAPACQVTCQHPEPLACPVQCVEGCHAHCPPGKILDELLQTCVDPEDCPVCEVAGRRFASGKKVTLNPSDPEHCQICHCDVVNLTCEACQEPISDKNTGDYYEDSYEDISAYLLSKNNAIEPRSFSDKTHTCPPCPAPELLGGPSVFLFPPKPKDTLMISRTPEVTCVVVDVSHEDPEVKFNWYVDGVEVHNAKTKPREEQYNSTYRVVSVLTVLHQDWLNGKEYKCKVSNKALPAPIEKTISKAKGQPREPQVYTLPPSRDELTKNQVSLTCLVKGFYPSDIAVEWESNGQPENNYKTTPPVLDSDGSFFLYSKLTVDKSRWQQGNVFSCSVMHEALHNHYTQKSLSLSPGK

VWF-052 (VWF D′D3-Fc with non-cleavable 48 amino acid long GS linker), sequence (chain, as listed by the source): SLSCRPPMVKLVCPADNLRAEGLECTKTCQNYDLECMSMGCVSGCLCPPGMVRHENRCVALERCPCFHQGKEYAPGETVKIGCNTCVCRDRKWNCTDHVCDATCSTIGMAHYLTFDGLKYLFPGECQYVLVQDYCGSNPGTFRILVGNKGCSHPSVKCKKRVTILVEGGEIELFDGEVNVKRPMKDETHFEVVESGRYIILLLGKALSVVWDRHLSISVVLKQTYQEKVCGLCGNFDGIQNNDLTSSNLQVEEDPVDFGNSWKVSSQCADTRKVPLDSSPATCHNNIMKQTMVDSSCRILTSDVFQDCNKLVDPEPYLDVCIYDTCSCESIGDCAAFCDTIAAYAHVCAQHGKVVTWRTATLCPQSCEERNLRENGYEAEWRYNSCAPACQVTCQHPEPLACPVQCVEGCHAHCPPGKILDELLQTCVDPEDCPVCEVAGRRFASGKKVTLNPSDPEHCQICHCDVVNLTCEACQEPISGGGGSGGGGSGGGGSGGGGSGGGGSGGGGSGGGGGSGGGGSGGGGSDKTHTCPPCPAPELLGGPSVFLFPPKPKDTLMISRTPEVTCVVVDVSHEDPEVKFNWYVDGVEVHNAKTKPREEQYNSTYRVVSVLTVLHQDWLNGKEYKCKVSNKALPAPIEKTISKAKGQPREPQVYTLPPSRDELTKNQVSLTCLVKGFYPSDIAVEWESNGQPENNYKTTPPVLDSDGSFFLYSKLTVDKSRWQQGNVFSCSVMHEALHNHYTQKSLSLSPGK

human alpha-thrombin
thrombin cleavage (Biacore, release of D′D3 from captured construct) [1]: as expected is not cleaved by thrombin | thrombin cleavage (Biacore, release of D′D3 from captured construct) [2]: displayed similar thrombin cleavage as VWF-039 construct
